Measurements published in US20260167728A1 (published 2026).
Residue numbers refer to the chain shown, from its start.

B1: AC3797 (CD3.293) (scFv, V domains shown)
VH: EVQLVESGGGIVQPGGSLRLSCAASGFTFSTYAMNWVRQAPGKGLEWVGRIRTKRNNYATYYADSVKGRFTISRDDSKNTVYLQMNSLKTEDTAVYYCVRHENFGNSYVSWFAHWGQGTLVTVSS
VL: ELVVTQEPSLTVSPGGTVTLTCRSSNGAVTSSNYANWVQQKPGQAPRGLIGGTNKRAPGTPARFSGSALGGKAALTLSGVQPEDEAVYYCALWYPNLWVFGGGTKLTVL
notes: Pool 3 format (remarks)
B2: AC3802 (CD3.298) (scFv, V domains shown)
VH: B1 VH
VL: B1 VL with A68L, L69D
notes: Pool 3 format (remarks)
B3: AC3811 (CD3.307) (scFv, V domains shown)
VH: B1 VH with N57D, V81A
VL: B1 VL with A68L, L69D
notes: Pool 3 format (remarks)
B4: AC3813 (CD3.309) (scFv, V domains shown)
VH: B1 VH with N57D, V81A
VL: B1 VL with A68L, G70E
notes: Pool 3 format (remarks)
B5: AC3869 (CD3.365) (scFv, V domains shown)
VH: B1 VH with R55T, N57D, V81L
VL: B1 VL
notes: Pool 3 format (remarks)
B6: AC3805 (CD3.301) (scFv, V domains shown)
VH: B1 VH with N57D, V81A
VL: B1 VL with A68L
notes: Pool 3 format (remarks)
B7: AC3880 (CD3.376) (scFv, V domains shown)
VH: B1 VH with R55P
VL: B1 VL with A68L
notes: Pool 3 format (remarks)
B8: AC3881 (CD3.377) (scFv, V domains shown)
VH: B1 VH with Y61T
VL: B1 VL with A68L
notes: Pool 3 format (remarks)
B9: AC3850 (CD3.346) (scFv, V domains shown)
VH: B1 VH with R55T
VL: B1 VL with A68L
notes: Pool 3 format (remarks)
B10: AC3867 (CD3.363) (scFv, V domains shown)
VH: B1 VH with R55T, N57D, V81A
VL: B1 VL with A68L, G70E
notes: Pool 3 format (remarks)
B11: AC3883 (CD3.379) (scFv, V domains shown)
VH: B1 VH with Y62W
VL: B1 VL with A68L
notes: Pool 3 format (remarks)
B12: AC3884 (CD3.380) (scFv, V domains shown)
VH: B1 VH with A59T
VL: B1 VL with A68L
notes: Pool 3 format (remarks)
B13: AC3877 (CD3.373) (scFv, V domains shown)
VH: B1 VH with W47D
VL: B1 VL with A68L
notes: Pool 3 format (remarks)
B14: AC3798 (CD3.294) (scFv, V domains shown)
VH: B1 VH
VL: B1 VL with A68G
notes: Pool 3 format (remarks)
B15: AC3660 (CD3.229) (bispecific antibody, V domains shown)
VH: B1 VH with S30N, R55T
VL: B1 VL with A68L
notes: Pool 2 format (remarks)
B16: AC3809 (CD3.305) (scFv, V domains shown)
VH: B1 VH with N57D, V81A
VL: B1 VL with A68L, L69E
notes: Pool 3 format (remarks)
B17: AC3800 (CD3.296) (scFv, V domains shown)
VH: B1 VH
VL: B1 VL with A68L, L69E
notes: Pool 3 format (remarks)
B18: AC3882 (CD3.378) (scFv, V domains shown)
VH: B1 VH with Y62D
VL: B1 VL with A68L
notes: Pool 3 format (remarks)
B19: AC3659 (CD3.228) (bispecific antibody, V domains shown)
VH: B1 VH
VL: B1 VL with A68L
notes: Pool 2 format (remarks)
B20: AC3860 (CD3.356) (scFv, V domains shown)
VH: B1 VH with R55T, N57D, V81A
VL: B1 VL
notes: Pool 3 format (remarks)
B21: AC3801 (CD3.297) (scFv, V domains shown)
VH: B1 VH
VL: B1 VL with A68L, L69G
notes: Pool 3 format (remarks)
B22: AMX-525 (1x-C) (bispecific antibody)
chain: GTSESATPESDIQMTQSPSSLSASVGDRVTITCQASQDISNYLNWYQQKPGKAPKLLIYDASNLETGVPSRFSGSGSGTDFTFTISSLQPEDIATYYCQHFDHLPLAFGQGTKVEIKSESATPESGPGTSPGATPESGPGTSESATPQVQLQESGPGLVKPSETLSLTCTVSGGSVSSGDYYWTWIRQPPGKGLEWIGHIYYSGNTNYNPSLKSRVTISVDTSKNQFSLKLSSVTAADTAVYYCARDRVTGAFDIWGQGTLVTVSSGGGGSELVVTQEPSLTVSPGGTVTLTCRSSNGAVTSSNYANWVQQKPGQAPRGLIGGTNKRAPGTPARFSGSLLEGKAALTLSGVQPEDEAVYYCALWYPNLWVFGGGTKLTVLSESATPESGPGTSPGATPESGPGTSESATPEVQLVESGGGIVQPGGSLRLSCAASGFTFSTYAMNWVRQAPGKGLEWVGRIRTKRNDYATYYADSVKGRFTISRDDSKNTLYLQMNSLKTEDTAVYYCVRHENFGNSYVSWFAHWGQGTLVTVSSGTATPESGPGEAGRSASHTPAGLTGPATPESGPGTSESATPESGPGSPAGSPTSTEEGTSESATPESGPGSEPATSGSETPGTSESATPESGPGTSTEPSEGSAPGTSTEPSEGSAPGTSTEPSEGSAPGTSTEPSEGSAPGTSTEPSEGSAPGTSTEPSEGSAPGSPAGSPTSTEEGTSTEPSEGSAPGTSESATPESGPGSEPATSGSETPGTSESATPESGPGSEPATSGSETPGTSESATPESGPGTSTEPSEGSAPGTSESATPESGPGSPAGSPTSTEEGSPAGSPTSTEEGSPAGSPTSTEEGTSESATPESGPGTSTEPSEGSAPGTSESATPESGPGSEPATSGSETPGTSESATPESGPGSEPATSGSETPGTSESATPESGPGTSTEPSEGSAPGSPAGSPTSTEEGTSESATPESGPGSEPATSGSETPGTSESATPESGPGSPAGSPTSTEEGSPAGSPTSTEEGTSTEPSEGSAPGTSESATPESGPGTSESATPESGPGTSPSATPESGPGSEPATSGSETPGSEPATSGSETPGSPAGSPTSTEEGTSTEPSEGSAPGTSTEPSEGSAPGSEPATSGSETPGTSESAGEPEA
B23: AC3803 (CD3.299) (scFv, V domains shown)
VH: B1 VH
VL: B1 VL with A68L, A74G
notes: Pool 3 format (remarks)
B24: AC3878 (CD3.374) (scFv, V domains shown)
VH: B1 VH with V48G
VL: B1 VL with A68L
notes: Pool 3 format (remarks)
B25: AC3886 (CD3.382) (scFv, V domains shown)
VH: B1 VH with S107A
VL: B1 VL with A68L
notes: Pool 3 format (remarks)
B26: AC3885 (CD3.381) (scFv, V domains shown)
VH: B1 VH with N106A
VL: B1 VL with A68L
notes: Pool 3 format (remarks)
B27: AC1955 (EGFR.2/CD3.9 paTCE) (bispecific antibody)
VL: DIQMTQSPSSLSASVGDRVTITCQASQDISNYLNWYQQKPGKAPKLLIYDASNLETGVPSRFSGSGSGTDFTFTISSLQPEDIATYFCQHFDHLPLAFGGGTKVEIK
VH: QVQLQESGPGLVKPSETLSLTCTVSGGSVSSGDYYWTWIRQSPGKGLEWIGHIYYSGNTNYNPSLKSRLTISIDTSKTQFSLKLSSVTAADTAIYYCVRDRVTGAFDIWGQGTMVTVSS
scFv: ELVVTQEPSLTVSPGGTVTLTCRSSTGAVTTSNYANWVQQKPGQAPRGLIGGTNKRAPGTPARFSGSLLGGKAALTLSGVQPEDEAEYYCALWYSNLWVFGGGTKLTVLGATPPETGAETESPGETTGGSAESEPPGEGEVQLLESGGGLVQPGGSLKLSCAASGFTFNTYAMNWVRQAPGKGLEWVARIRSKYNNYATYYADSVKDRFTISRDDSKNTAYLQMNNLKTEDTAVYYCVRHGNFGNSYVSWFAYWGQGTLVTVSS
notes: One polypeptide; also called EGFR-XPAT gen1; pJB0169

Each binder was assayed against T1, huCD3e-mFc (human, UniProt P07766 23-126) (assay: Pool 3 screen).
T1 construct: not shown: mFc, not described
T1 sequence (P07766 23-126): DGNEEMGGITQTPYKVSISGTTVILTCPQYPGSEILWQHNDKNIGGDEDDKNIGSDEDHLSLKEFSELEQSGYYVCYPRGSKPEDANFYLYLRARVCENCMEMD
B1 was tested, and the Kd was 3.8 nM.
With B2 the Kd was 4.07 nM.
Binder B3 has a Kd of 6.35 nM.
B4 showed a Kd of 5.82 nM.
B5 showed a Kd of 18.8 nM.
Work on B6 yielded a Kd of 5.53 nM.
B7 gave a Kd of 12.9 nM.
B8 was tested, and the Kd was 10.7 nM.
Work on B9 yielded a Kd of 9.83 nM.
Work on B10 yielded a Kd of 62.7 nM.
B11 was tested, and the Kd was 4.19 nM.
With B12 the Kd was 4.54 nM.
B13 was tested, and the Kd was 8.92 nM.
With B14 the Kd was 3.05 nM.
B15 showed a Kd of 13.6 nM.
B16 showed a Kd of 6.28 nM.
In the case of B17, the Kd is reported as 4.74 nM.
In the case of B18, the Kd is reported as 3.74 nM.
For B19, the Kd was 5.14 nM.
In the case of B20, the Kd is reported as 29.4 nM.
B21 gave a Kd of 3.92 nM.

These binders were tested against T2, human EGFR (human, UniProt P00533 25-645, limits assumed) (assay: SPR Biacore 37 C).
T2 construct: on HT-29 cells in the cytotoxicity assay; also called epidermal growth factor receptor
For B22, the Kd was 0.184 nM, the koff was 0.00036 s⁻¹ and the kon was 2e+06 M⁻¹ s⁻¹.

Each binder was assayed against T3, cynomolgus monkey EGFR (cynomolgus monkey, UniProt A0A2K5WK39 25-645) (assay: SPR Biacore 37 C).
T3 construct: also called Cyno EGFR
B22 was tested, and the Kd was 0.238 nM, the koff was 0.00051 s⁻¹ and the kon was 2.12e+06 M⁻¹ s⁻¹.

What follows are binders tested against T1, huCD3e-mFc (assay: Pool 3 screen, R2).
Binder B1 has a Kd of 3.72 nM.
Binder B2 has a Kd of 8 nM.
Binder B23 has a Kd of 7.96 nM.
B9 was tested, and the Kd was 10.8 nM.
Work on B14 yielded a Kd of 5.75 nM.
B24 showed a Kd of 17 nM.
In the case of B25, the Kd is reported as 21.2 nM.
Work on B17 yielded a Kd of 17 nM.
B21 gave a Kd of 21.2 nM.

Each binder was assayed against T1, huCD3e-mFc (assay: Pool 3 screen, R3).
B3 was tested, and the Kd was 4.8 nM.
Work on B4 yielded a Kd of 5.4 nM.
B6 was tested, and the Kd was 4.4 nM.
Binder B26 has a Kd of 4.2 nM.
With B8 the Kd was 10.4 nM.
B16 was tested, and the Kd was 4.6 nM.
In the case of B20, the Kd is reported as 19.7 nM.

Each binder was assayed against T2, human EGFR (assay: BLI, room temperature).
Method: Each construct was expressed in small-scale and purified. Thermal stability was determined by Differential Scanning Fluorimetry. Melting temperature (Tₘ) determined by Differential Scanning Fluorimetry experiments described herein were performed either in duplicate or triplicate using GloMelt™ dye and QuantStudio5™. GloMelt™ dye undergoes fluorescence enhancement upon binding to hydrophobic regions of denatured proteins. Therefore, the dye can be used to detect protein unfolding or measure thermal stability. GloMelt™ dye is optimized for detection in the SYBR® Green channel of qPCR instruments. The Differential Scanning Fluorimetry experiments were performed in 96-well plates with 10 μg protein/reaction (equal to 0.5 mg/mL final protein concentration), reaction buffer, and GloMelt™ 10× dye according to manufacturer's instructions. Fluorescence of 96-well plates was read and melt curve plots were generated in the QuantStudio5™ qPCR system. Binding affinity was analyzed with bio-layer interferometry at room temperature with human EGFR as the antigen.
B27 was tested, and the Kd was 0.72 nM.
